{"source": "paper PMC5976236", "key": {"[1]": {"molecular_target": "recombinant human galectin-3 (human) (UniProt P17931)", "sequence (P17931 whole entry)": "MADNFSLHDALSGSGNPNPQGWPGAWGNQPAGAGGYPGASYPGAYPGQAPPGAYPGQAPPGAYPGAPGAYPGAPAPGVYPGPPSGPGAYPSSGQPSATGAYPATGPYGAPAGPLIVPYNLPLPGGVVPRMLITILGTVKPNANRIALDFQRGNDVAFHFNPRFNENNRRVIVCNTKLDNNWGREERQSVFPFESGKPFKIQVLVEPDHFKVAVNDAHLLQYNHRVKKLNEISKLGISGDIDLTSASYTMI", "assay": "atomic force microscopy force spectroscopy; Gal-3 attached to a slide, mDectin-2 or SIGN-R1 (untreated or PNGase F-treated) on the AFM tips; PBS"}, "[2]": {"molecular_target": "Muc2 from colon of wild-type C57BL/6 mice (mouse (endogenous in C57BL/6 colon)) (UniProt Q80Z19)", "sequence (Q80Z19 21-4576)": "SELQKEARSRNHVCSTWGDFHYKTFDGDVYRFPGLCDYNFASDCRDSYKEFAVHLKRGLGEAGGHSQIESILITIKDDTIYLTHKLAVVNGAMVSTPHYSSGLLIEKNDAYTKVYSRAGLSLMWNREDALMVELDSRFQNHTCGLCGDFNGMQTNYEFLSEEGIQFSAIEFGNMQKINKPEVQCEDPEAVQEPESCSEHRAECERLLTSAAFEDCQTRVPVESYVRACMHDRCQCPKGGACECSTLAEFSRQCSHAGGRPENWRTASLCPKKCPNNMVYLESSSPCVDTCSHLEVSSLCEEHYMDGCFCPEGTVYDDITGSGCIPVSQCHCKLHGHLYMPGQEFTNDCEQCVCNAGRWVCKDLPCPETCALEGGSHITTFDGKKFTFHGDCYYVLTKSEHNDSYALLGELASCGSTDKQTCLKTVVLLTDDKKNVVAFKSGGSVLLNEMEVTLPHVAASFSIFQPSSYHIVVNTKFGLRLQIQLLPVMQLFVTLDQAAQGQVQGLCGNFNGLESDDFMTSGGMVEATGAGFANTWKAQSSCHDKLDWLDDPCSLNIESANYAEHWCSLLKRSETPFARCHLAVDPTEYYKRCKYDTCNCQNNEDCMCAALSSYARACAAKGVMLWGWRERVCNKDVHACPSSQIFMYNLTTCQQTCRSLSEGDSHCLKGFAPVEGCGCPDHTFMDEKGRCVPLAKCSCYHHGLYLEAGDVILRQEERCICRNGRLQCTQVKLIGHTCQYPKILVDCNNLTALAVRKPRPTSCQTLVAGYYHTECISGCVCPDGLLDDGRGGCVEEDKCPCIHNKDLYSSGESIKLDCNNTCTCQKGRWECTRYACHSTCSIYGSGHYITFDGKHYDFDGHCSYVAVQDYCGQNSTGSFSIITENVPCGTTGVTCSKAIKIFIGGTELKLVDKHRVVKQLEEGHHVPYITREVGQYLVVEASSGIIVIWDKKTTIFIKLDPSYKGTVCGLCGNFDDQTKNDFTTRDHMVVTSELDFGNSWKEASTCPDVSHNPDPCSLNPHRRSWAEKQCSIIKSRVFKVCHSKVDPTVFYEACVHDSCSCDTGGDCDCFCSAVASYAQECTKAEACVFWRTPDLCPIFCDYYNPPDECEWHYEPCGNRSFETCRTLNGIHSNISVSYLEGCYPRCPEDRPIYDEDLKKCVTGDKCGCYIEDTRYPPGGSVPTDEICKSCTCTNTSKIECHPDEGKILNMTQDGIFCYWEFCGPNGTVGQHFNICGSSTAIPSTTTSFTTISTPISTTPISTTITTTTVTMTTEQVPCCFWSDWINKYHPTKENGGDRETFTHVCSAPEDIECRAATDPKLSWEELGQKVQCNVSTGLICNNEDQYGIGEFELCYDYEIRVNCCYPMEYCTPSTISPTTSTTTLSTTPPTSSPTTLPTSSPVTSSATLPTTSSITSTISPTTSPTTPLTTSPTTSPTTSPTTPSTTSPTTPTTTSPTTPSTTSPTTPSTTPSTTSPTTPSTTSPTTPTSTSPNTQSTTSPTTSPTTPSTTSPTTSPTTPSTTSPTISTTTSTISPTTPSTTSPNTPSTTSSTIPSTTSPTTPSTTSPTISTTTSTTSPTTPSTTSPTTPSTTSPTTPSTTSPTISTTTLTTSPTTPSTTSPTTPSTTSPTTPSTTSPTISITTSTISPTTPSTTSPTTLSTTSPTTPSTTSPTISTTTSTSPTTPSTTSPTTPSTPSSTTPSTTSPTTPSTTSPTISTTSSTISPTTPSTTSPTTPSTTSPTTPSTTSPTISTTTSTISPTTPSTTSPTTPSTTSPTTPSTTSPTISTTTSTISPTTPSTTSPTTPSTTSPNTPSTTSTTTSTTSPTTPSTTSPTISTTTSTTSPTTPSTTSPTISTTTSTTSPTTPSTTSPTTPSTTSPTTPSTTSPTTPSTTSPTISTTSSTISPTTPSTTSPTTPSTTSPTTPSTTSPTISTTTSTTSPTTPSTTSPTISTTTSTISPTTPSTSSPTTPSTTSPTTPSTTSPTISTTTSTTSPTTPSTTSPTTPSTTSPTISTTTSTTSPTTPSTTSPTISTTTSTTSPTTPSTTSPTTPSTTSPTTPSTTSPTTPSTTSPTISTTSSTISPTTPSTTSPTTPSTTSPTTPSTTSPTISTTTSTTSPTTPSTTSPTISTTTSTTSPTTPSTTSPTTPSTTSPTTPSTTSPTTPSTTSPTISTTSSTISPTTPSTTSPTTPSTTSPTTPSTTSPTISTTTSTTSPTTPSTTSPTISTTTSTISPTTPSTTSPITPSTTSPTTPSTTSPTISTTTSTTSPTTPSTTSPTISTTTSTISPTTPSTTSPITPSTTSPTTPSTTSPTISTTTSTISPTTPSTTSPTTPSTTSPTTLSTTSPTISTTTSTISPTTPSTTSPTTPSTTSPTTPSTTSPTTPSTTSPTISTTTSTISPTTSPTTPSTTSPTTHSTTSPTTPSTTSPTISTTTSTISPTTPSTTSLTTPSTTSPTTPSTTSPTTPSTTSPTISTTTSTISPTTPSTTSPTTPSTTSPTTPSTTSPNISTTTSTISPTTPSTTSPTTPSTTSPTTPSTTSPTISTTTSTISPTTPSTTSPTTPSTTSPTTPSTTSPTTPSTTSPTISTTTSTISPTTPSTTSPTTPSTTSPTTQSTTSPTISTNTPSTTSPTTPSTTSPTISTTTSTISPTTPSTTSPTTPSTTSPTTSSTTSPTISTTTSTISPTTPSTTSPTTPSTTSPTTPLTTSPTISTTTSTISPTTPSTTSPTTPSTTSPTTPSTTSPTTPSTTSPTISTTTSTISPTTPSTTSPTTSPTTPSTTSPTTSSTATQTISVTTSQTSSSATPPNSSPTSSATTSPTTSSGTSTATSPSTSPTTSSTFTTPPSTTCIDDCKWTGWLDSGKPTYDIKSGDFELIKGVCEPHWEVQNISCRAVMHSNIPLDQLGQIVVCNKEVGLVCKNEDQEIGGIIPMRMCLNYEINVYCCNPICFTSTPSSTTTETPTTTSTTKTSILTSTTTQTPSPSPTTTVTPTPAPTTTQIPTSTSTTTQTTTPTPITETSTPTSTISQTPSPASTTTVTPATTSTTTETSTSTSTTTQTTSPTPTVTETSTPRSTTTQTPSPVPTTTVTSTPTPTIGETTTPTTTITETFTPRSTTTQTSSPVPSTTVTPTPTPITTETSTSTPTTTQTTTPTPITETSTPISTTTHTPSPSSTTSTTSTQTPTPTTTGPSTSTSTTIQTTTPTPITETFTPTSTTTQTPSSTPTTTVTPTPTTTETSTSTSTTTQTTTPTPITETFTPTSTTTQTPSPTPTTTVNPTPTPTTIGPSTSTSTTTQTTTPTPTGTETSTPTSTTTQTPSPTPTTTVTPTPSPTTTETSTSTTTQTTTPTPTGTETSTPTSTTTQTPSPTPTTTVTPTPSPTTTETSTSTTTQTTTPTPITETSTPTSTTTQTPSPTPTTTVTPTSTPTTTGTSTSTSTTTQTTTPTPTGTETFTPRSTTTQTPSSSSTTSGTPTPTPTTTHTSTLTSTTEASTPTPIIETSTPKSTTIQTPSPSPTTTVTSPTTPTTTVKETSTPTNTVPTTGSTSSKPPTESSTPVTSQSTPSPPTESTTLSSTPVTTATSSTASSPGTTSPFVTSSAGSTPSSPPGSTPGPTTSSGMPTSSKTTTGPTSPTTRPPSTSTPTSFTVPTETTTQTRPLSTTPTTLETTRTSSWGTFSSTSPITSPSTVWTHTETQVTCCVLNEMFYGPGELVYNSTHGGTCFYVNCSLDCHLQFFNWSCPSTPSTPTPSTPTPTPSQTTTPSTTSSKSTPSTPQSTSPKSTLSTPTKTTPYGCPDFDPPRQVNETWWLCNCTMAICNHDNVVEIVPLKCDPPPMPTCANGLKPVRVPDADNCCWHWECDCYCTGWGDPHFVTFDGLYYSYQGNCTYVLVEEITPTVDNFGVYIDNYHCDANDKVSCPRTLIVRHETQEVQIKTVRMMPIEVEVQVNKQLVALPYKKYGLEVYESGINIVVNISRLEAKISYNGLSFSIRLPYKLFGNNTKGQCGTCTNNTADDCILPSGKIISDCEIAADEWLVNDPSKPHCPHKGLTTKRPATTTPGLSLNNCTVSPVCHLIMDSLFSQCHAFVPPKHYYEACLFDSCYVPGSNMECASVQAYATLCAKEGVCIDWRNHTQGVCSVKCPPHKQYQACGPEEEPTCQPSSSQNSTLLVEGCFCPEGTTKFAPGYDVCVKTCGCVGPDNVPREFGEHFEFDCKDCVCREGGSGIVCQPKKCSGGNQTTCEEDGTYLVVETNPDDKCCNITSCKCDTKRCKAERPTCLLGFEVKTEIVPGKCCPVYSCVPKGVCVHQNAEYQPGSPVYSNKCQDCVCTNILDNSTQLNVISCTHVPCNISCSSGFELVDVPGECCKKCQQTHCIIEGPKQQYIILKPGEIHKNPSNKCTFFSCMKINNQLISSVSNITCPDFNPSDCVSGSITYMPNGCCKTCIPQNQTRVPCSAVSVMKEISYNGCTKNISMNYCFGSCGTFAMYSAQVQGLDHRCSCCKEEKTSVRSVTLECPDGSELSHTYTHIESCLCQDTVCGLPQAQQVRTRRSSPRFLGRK", "assay": "atomic force microscopy force spectroscopy; C-type lectins attached to the AFM tip via the PEG linker, mucin covalently attached to the glass slide; PBS; 1024 force curves"}}}
{"substance": "recombinant murine SIGN-R1 (from UniProt Q8CJ91 1-325) (receptor)", "values": [{"measurement": "modal value of adhesion", "setting": "[1]", "result": 17.1, "unit": "pN"}, {"measurement": "adhesion force of some binding events", "setting": "[2]", "result": 3210, "unit": "pN"}, {"measurement": "modal value of adhesions", "setting": "[2]", "result": 292, "unit": "pN"}]}
